Consider 116 sequences from the supplement of paper PMC10724198.

± gives the standard deviation of the averaged measurements.
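Further: PSI is a weighted mean of sequencing reads over stability bins, variants kept only with over 10 reads, mCherry proximal and sfGFP distal, peptide attached via GGGS linker.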

The subject of the data set is Saccharomyces cerevisiae. The experiment in a line: protein stability index of tFT-peptide fusion (C-terminal peptide) (PSI (0-1 scale)); higher = more stable (slower turnover). The following applies: genetic background: wild type; temperature: 30 C.
Turning to KKKKGKKRRTRK, the protein stability index turned out to be 0.72 ± 0.041.

In turn, KKKKKIKKKHNK had a protein stability index of 0.6859 ± 0.001.

In turn, KKKKKKGKGAKT showed a protein stability index of 0.617 ± 0.011.

For the sequence KKKKKKKKKKTR, the protein stability index was 0.6407 ± 0.0016.

With KKKKKKKKTNKK, the protein stability index came out at 0.762 ± 0.084.

Sequence KKKKKKKRNKHN displayed a protein stability index of 0.706 ± 0.048.

In turn, KKKKKKNKKTKN gave a protein stability index of 0.711 ± 0.045.

In the case of KKKKKKQQKKRK, the protein stability index is 0.686 ± 0.039.

As for KKKKKKTKKKNK, the protein stability index turned out to be 0.719 ± 0.016.

Take KKKKKKVRYIRI: the protein stability index is 0.671 ± 0.046.

The sequence KKKKKQKDTKHR yielded a protein stability index of 0.682 ± 0.018.

KKKKKQKKKKKK returned a protein stability index of 0.643 ± 0.048.

KKKKKQTKGKNK came in with a protein stability index of 0.688 ± 0.12.

On to KKKKKRKKKKEK, for which the protein stability index is 0.683 ± 0.044.

On to KKKKKTKKKAEK, for which the protein stability index was found to be 0.701 ± 0.022.

Take KKKKPKKKTQKS: the protein stability index is 0.713 ± 0.04.

The sequence KKKKQNKRKRKT displayed a protein stability index of 0.635 ± 0.0086.

The sequence KKKKQRKQEKKI displayed a protein stability index of 0.642 ± 0.008.

In turn, KKKKREKSKHRK yielded a protein stability index of 0.714 ± 0.022.

As for KKKKRIQEKEII, the protein stability index was found to be 0.63 ± 0.015.

For KKKKRKIPKKKK, the protein stability index was determined as 0.635 ± 0.11.

KKKKTEIKRNKT gave a protein stability index of 0.689 ± 0.026.

On to KKKKTKKKTNSI, for which the protein stability index was 0.727 ± 0.0076.

Regarding KKKKTKYIKRKK, the protein stability index is 0.701 ± 0.18.

KKKKTQKKKTKQ displayed a protein stability index of 0.668 ± 0.019.

Turning to KKKKTVHKKNRR, the protein stability index turned out to be 0.699 ± 0.022.

KKKLKYKGIRTN yielded a protein stability index of 0.679 ± 0.049.

As to KKKNNRITVFKV, the protein stability index came to 0.636 ± 0.067.

In turn, KKKQKYRREEKE came in with a protein stability index of 0.724 ± 0.051.

The sequence KKKQPKKNQNPT came in with a protein stability index of 0.767 ± 0.075.

The sequence KKKRKKSKKKKK registered a protein stability index of 0.642 ± 0.1.

KKKRRFTQEMDK showed a protein stability index of 0.684 ± 0.17.

For the sequence KKKTKNGKEKRR, the protein stability index was 0.7 ± 0.019.

In the case of KKLRNKKGKRYA, the protein stability index stood at 0.645 ± 0.086.

Consider KKLSSRTQGLHG, for which the protein stability index is 0.746 ± 0.059.

Consider KKLSTYSVIEKS, for which the protein stability index was 0.601 ± 0.042.

KKMKEKKKRNHA showed a protein stability index of 0.712 ± 0.035.

In turn, KKNKAKRKKYIV returned a protein stability index of 0.616 ± 0.03.

On to KKNKHKEKIKKK, for which the protein stability index was determined as 0.723 ± 0.069.

As to KKQKKHKKEKEK, the protein stability index came to 0.638 ± 0.019.

The sequence KKQKKKKSTKRN had a protein stability index of 0.722 ± 0.038.

In turn, KKQRKRTKRKRK registered a protein stability index of 0.693 ± 0.048.

In turn, KKREEVKKNIKI yielded a protein stability index of 0.681 ± 0.019.

In turn, KKRERNDKRGCQ had a protein stability index of 0.652 ± 0.024.

KKRKKKKQTKRK returned a protein stability index of 0.691 ± 0.022.

On to KKRKKKRTEPQP, for which the protein stability index was 0.6421 ± 0.00099.

The sequence KKRKNNKIRKKK had a protein stability index of 0.723 ± 0.0053.

With KKRTTKEKKQHK, the protein stability index came out at 0.693 ± 0.033.

With KKSQKSKNKTHN, the protein stability index amounted to 0.571 ± 0.0066.

KKTEGATEERKR showed a protein stability index of 0.692 ± 0.015.

KKTIENEGRNIL yielded a protein stability index of 0.645 ± 0.0069.

On to KKTIEQNNLTIV, for which the protein stability index was determined as 0.7091 ± 0.002.

The sequence KLGWSVTRAEVN had a protein stability index of 0.687 ± 0.017.

As for KLKITSKDKIIK, the protein stability index came out at 0.671 ± 0.016.

Sequence KLLRPMVLPQRT came in with a protein stability index of 0.615 ± 0.02.

KLSIKNLFDLLY registered a protein stability index of 0.691 ± 0.033.

For the sequence KLTVPTKTIVHT, the protein stability index stood at 0.651 ± 0.03.

KLVGASVYECQR displayed a protein stability index of 0.672 ± 0.012.

Regarding KMGTEEGRVWVG, the protein stability index stood at 0.651 ± 0.054.

For KMVTRKKNEEKD, the protein stability index turned out to be 0.6328 ± 0.0029.

The sequence KNEKEKKTKMRN returned a protein stability index of 0.754 ± 0.14.

For the sequence KNGLERFTSNRS, the protein stability index is 0.641 ± 0.051.

The sequence KNKQSKNKSKRK returned a protein stability index of 0.712 ± 0.038.

KNKTRSEISKNS came in with a protein stability index of 0.6974 ± 0.0017.

KNNSKKRKLKPR registered a protein stability index of 0.718 ± 0.14.

Sequence KNRKKIKIVCVK had a protein stability index of 0.559 ± 0.026.

KNRKTQSNQTKI gave a protein stability index of 0.719 ± 0.025.

As to KNSNIDKMIRKE, the protein stability index worked out at 0.6973 ± 0.0012.

As to KNTRIKKMKRRT, the protein stability index was found to be 0.827 ± 0.097.

On to KNTVRKCNGRMH, for which the protein stability index is 0.57 ± 0.063.

Sequence KPRKEKRGLVNS displayed a protein stability index of 0.664 ± 0.039.

In turn, KPSHNEARKKGG registered a protein stability index of 0.681 ± 0.014.

In turn, KQGKKKDEWTRG showed a protein stability index of 0.6945 ± 0.0023.

The sequence KQKIKKRIKKTI yielded a protein stability index of 0.6958 ± 0.0029.

KQKIKTDKYKKD showed a protein stability index of 0.656 ± 0.051.

KQKLEGTIIREL came in with a protein stability index of 0.674 ± 0.024.

On to KQRENMCRCARE, for which the protein stability index amounted to 0.712 ± 0.074.

KQRTRKYLNSRN came in with a protein stability index of 0.654 ± 0.12.

For the sequence KRDNKNKDKQKK, the protein stability index worked out at 0.7 ± 0.024.

Turning to KREKKNTYIKKV, the protein stability index was determined as 0.671 ± 0.04.

With KREQKPHPKLKL, the protein stability index came to 0.5682 ± 0.0021.

On to KRGGRGEKAEGK, for which the protein stability index was determined as 0.655 ± 0.024.

In turn, KRGRISKKRDSS displayed a protein stability index of 0.759 ± 0.017.

For KRGSREQQRYWK, the protein stability index is 0.659 ± 0.027.

KRIGLGEERQKR showed a protein stability index of 0.57 ± 0.078.

For KRIIRSYHFLGC, the protein stability index was 0.698 ± 0.047.

KRIKTEKRRSKK showed a protein stability index of 0.748 ± 0.046.

As for KRILKEKRRKKN, the protein stability index turned out to be 0.658 ± 0.036.

On to KRITLNADIIIK, for which the protein stability index was determined as 0.629 ± 0.11.

KRKHQSPLLNTR displayed a protein stability index of 0.705 ± 0.021.

KRKQDKEAEKKS returned a protein stability index of 0.704 ± 0.019.

The sequence KRKREKKEKADA registered a protein stability index of 0.66 ± 0.043.

Turning to KRLCTYRMIGSL, the protein stability index was 0.521 ± 0.0089.

Regarding KRLNRVHRSTKV, the protein stability index is 0.687 ± 0.021.

Consider KRNSLSLIPQII, for which the protein stability index worked out at 0.655 ± 0.071.

On to KRPVTPTFGRLQ, for which the protein stability index amounted to 0.645 ± 0.067.

In turn, KRQKENRKNKKI showed a protein stability index of 0.704 ± 0.019.

For KRRRWFILSGPL, the protein stability index turned out to be 0.685 ± 0.008.

Regarding KRSGEGREKIRK, the protein stability index is 0.703 ± 0.028.

In turn, KRSIVSTDKDRY yielded a protein stability index of 0.603 ± 0.045.

Sequence KRVIVRLASYAS came in with a protein stability index of 0.55909 ± 2.1e-05.

Consider KSGVWLWGGGGG, for which the protein stability index was 0.724 ± 0.032.

Regarding KSKKERREKKKA, the protein stability index was found to be 0.665 ± 0.031.

KSKKNKTEKTKE: the protein stability index was determined as 0.665 ± 0.027.

KSKKRERDETKK yielded a protein stability index of 0.645 ± 0.033.

As for KSKQKNKTQVKN, the protein stability index was found to be 0.66 ± 0.023.

For the sequence KSPSTRATTHTY, the protein stability index is 0.678 ± 0.028.

KSRLYVDVLMQR displayed a protein stability index of 0.659 ± 0.077.

Sequence KSRTRNNVSRVG returned a protein stability index of 0.6703 ± 0.0062.

The sequence KSVVRLPHLPLE came in with a protein stability index of 0.695 ± 0.02.

In turn, KTDNTRTQKMVR showed a protein stability index of 0.808 ± 0.011.

Sequence KTEEERKKAEKE displayed a protein stability index of 0.653 ± 0.076.

Regarding KTGEKIKKNNIK, the protein stability index amounted to 0.692 ± 0.059.

Regarding KTKERKKQMRKI, the protein stability index was found to be 0.6822 ± 0.0042.

With KTKKKNKKDQKM, the protein stability index stood at 0.6661 ± 0.0047.

KTKKKRKQKGKQ registered a protein stability index of 0.684 ± 0.064.
